Experimental findings from the supplement of paper PMC9112550, “Optimization of the antimicrobial peptide Bac7 by deep mutational scanning” (BMC Biology, 2022) are described below.

The subject of this series is Escherichia coli TOP10. The series can be described thus: shrunken log2 fold change of peptide-encoding DNA abundance (4.5 h post-induction vs induction); higher = less antimicrobial activity (less host growth inhibition). As to conditions: time post-induction: 4.5 h; library: site-saturation at positions 5, 18, 19, 20.
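Further: peptides expressed intracellularly from a pBAD plasmid library in pooled LB shake-flask culture, induced with 0.3% L-arabinose, DNA abundance read by NGS, three biological replicates, DESeq2 with apeglm shrinkage.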

As to RRIRCRPPRLPRPRPRPEQFPRP, the “shrunken log2 fold change” value was determined as 0.0372.
Under RRIRARPPRLPRPRPRPDITPRP stands 0.491; under RRIRERPPRLPRPRPRPRGGPRP, 0.376.
With RRIRKRPPRLPRPRPRPQVTPRP the figure was -0.0535; with RRIRNRPPRLPRPRPRPNREPRP, 0.00564; with RRIRCRPPRLPRPRPRPWSIPRP, 0.0457.
With RRIRERPPRLPRPRPRPIDFPRP the figure was 0.136.
For the sequence RRIRPRPPRLPRPRPRPSEWPRP, the “shrunken log2 fold change” value was 0.0522.
For the sequence RRIRQRPPRLPRPRPRPSKPPRP, the “shrunken log2 fold change” value is -0.231.
As for RRIRCRPPRLPRPRPRPHAIPRP, the “shrunken log2 fold change” value was -0.139.
In the case of RRIRARPPRLPRPRPRPFWFPRP, the “shrunken log2 fold change” value was 0.0903.
Under RRIRGRPPRLPRPRPRPYQTPRP stands 0.0825.
RRIRTRPPRLPRPRPRPPIYPRP: the “shrunken log2 fold change” value is -0.305.
Under RRIRQRPPRLPRPRPRPAQMPRP stands -0.15; under RRIRVRPPRLPRPRPRPYPHPRP, -0.342; under RRIRTRPPRLPRPRPRPSSMPRP, -0.239.
Turning to RRIRDRPPRLPRPRPRPQQQPRP, the “shrunken log2 fold change” value is -0.114.
Under RRIRMRPPRLPRPRPRPHKRPRP stands 0.126.
Under RRIRDRPPRLPRPRPRPADLPRP stands -0.0491; under RRIRTRPPRLPRPRPRPLDNPRP, -0.396.
With RRIRARPPRLPRPRPRPRSMPRP the figure was 0.42; with RRIRIRPPRLPRPRPRPRLAPRP, 0.237.
On to RRIRVRPPRLPRPRPRPGQVPRP, for which the “shrunken log2 fold change” value came out at 0.0448.
For RRIRWRPPRLPRPRPRPMIDPRP, the “shrunken log2 fold change” value was -0.579.
Turning to RRIRGRPPRLPRPRPRPEFAPRP, the “shrunken log2 fold change” value was determined as 1.22.
On to RRIRIRPPRLPRPRPRPQYRPRP, for which the “shrunken log2 fold change” value is -0.0599.
With RRIRYRPPRLPRPRPRPEAEPRP the figure was 0.137.
In the case of RRIRFRPPRLPRPRPRPFPYPRP, the “shrunken log2 fold change” value is -0.445.
As to RRIRYRPPRLPRPRPRPVQKPRP, the “shrunken log2 fold change” value was determined as 0.0112.
With RRIRDRPPRLPRPRPRPLMTPRP, the “shrunken log2 fold change” value was found to be 0.195.
With RRIRQRPPRLPRPRPRPERVPRP the figure was 0.0836; with RRIRRRPPRLPRPRPRPWTGPRP, -0.444.
With RRIRPRPPRLPRPRPRPECRPRP the figure was 0.56.
Under RRIRRRPPRLPRPRPRPATGPRP stands 0.222; under RRIRWRPPRLPRPRPRPENDPRP, -0.0396; under RRIRQRPPRLPRPRPRPRPHPRP, 0.483.
For the sequence RRIRHRPPRLPRPRPRPCYYPRP, the “shrunken log2 fold change” value is -0.258.
Regarding RRIRFRPPRLPRPRPRPRMTPRP, the “shrunken log2 fold change” value was found to be 0.128.
Take RRIRERPPRLPRPRPRPDVEPRP: the “shrunken log2 fold change” value was 0.084.
On to RRIRSRPPRLPRPRPRPYFLPRP, for which the “shrunken log2 fold change” value was -0.885.
Turning to RRIRIRPPRLPRPRPRPNHRPRP, the “shrunken log2 fold change” value came to 0.0615.
With RRIRQRPPRLPRPRPRPHFEPRP the figure was 0.154; with RRIRARPPRLPRPRPRPYPCPRP, -0.417.
Consider RRIRNRPPRLPRPRPRPNPNPRP, for which the “shrunken log2 fold change” value turned out to be 0.0656.
In the case of RRIRSRPPRLPRPRPRPIEMPRP, the “shrunken log2 fold change” value was -0.0731.
With RRIRFRPPRLPRPRPRPKKQPRP the figure was 0.0157; with RRIRVRPPRLPRPRPRPMYIPRP, -0.0844.
With RRIRWRPPRLPRPRPRPQGNPRP the figure was -1.12; with RRIRDRPPRLPRPRPRPPLCPRP, 0.223.
For the sequence RRIRMRPPRLPRPRPRPANLPRP, the “shrunken log2 fold change” value was determined as 0.013.
Under RRIRPRPPRLPRPRPRPELIPRP stands 0.0313; under RRIRIRPPRLPRPRPRPWIAPRP, -0.717; under RRIRERPPRLPRPRPRPHQDPRP, -0.0312.
For the sequence RRIRVRPPRLPRPRPRPKIYPRP, the “shrunken log2 fold change” value was -0.309.
For the sequence RRIRARPPRLPRPRPRPIKTPRP, the “shrunken log2 fold change” value was 0.213.
With RRIRGRPPRLPRPRPRPRLLPRP the figure was 0.908; with RRIRVRPPRLPRPRPRPHAHPRP, -0.256; with RRIRWRPPRLPRPRPRPFFQPRP, 0.329.
RRIRNRPPRLPRPRPRPDTAPRP: the “shrunken log2 fold change” value was -0.235.
Consider RRIRLRPPRLPRPRPRPFSTPRP, for which the “shrunken log2 fold change” value turned out to be 0.0382.
Turning to RRIRGRPPRLPRPRPRPPEDPRP, the “shrunken log2 fold change” value stood at 1.21.
RRIRPRPPRLPRPRPRPQMTPRP: the “shrunken log2 fold change” value was 2.25.
With RRIRVRPPRLPRPRPRPHTDPRP the figure was -0.141; with RRIRKRPPRLPRPRPRPHKTPRP, -0.0618; with RRIRERPPRLPRPRPRPHEPPRP, -0.0545.
RRIRRRPPRLPRPRPRPTMFPRP: the “shrunken log2 fold change” value came to 0.0275.
Under RRIRWRPPRLPRPRPRPHKRPRP stands 0.0239; under RRIRPRPPRLPRPRPRPRKQPRP, 0.0406; under RRIRARPPRLPRPRPRPMVFPRP, 0.508.
As for RRIRHRPPRLPRPRPRPCAVPRP, the “shrunken log2 fold change” value was -0.0171.
On to RRIRPRPPRLPRPRPRPLRIPRP, for which the “shrunken log2 fold change” value was 0.0628.
Under RRIRYRPPRLPRPRPRPYTFPRP stands 0.041; under RRIRDRPPRLPRPRPRPTWPPRP, 0.501; under RRIRIRPPRLPRPRPRPRVQPRP, 0.0871.
Turning to RRIRHRPPRLPRPRPRPSRGPRP, the “shrunken log2 fold change” value was -0.0716.
RRIRRRPPRLPRPRPRPKQNPRP: the “shrunken log2 fold change” value is 0.631.
Regarding RRIRQRPPRLPRPRPRPRLTPRP, the “shrunken log2 fold change” value is 0.178.
With RRIRCRPPRLPRPRPRPMAVPRP the figure was 0.0112; with RRIRQRPPRLPRPRPRPIYTPRP, 0.036.
With RRIRWRPPRLPRPRPRPESPPRP the figure was 0.637; with RRIRTRPPRLPRPRPRPGESPRP, -0.012.
With RRIRGRPPRLPRPRPRPKVTPRP the figure was 0.29; with RRIRFRPPRLPRPRPRPYWKPRP, -0.0922; with RRIRVRPPRLPRPRPRPDDRPRP, -0.0538.
As for RRIRFRPPRLPRPRPRPNNSPRP, the “shrunken log2 fold change” value is -0.685.
For the sequence RRIRTRPPRLPRPRPRPDAPPRP, the “shrunken log2 fold change” value was found to be 0.215.
Take RRIRERPPRLPRPRPRPIYFPRP: the “shrunken log2 fold change” value is -0.378.
On to RRIRFRPPRLPRPRPRPTQLPRP, for which the “shrunken log2 fold change” value turned out to be 0.364.
With RRIRIRPPRLPRPRPRPCNYPRP the figure was -0.103; with RRIRTRPPRLPRPRPRPWVQPRP, -0.0274; with RRIRCRPPRLPRPRPRPNLFPRP, -0.932.
With RRIRKRPPRLPRPRPRPRNEPRP the figure was 0.0551; with RRIRCRPPRLPRPRPRPIWHPRP, -0.239; with RRIRSRPPRLPRPRPRPWRFPRP, 0.566.
Consider RRIRNRPPRLPRPRPRPMISPRP, for which the “shrunken log2 fold change” value was -0.0707.
RRIRPRPPRLPRPRPRPLCRPRP: the “shrunken log2 fold change” value worked out at 0.0255.
Consider RRIRRRPPRLPRPRPRPNWLPRP, for which the “shrunken log2 fold change” value came to 0.121.
Under RRIRLRPPRLPRPRPRPLLQPRP stands 0.138; under RRIRYRPPRLPRPRPRPDFFPRP, 0.373.
With RRIRSRPPRLPRPRPRPNTGPRP the figure was -0.336.
Under RRIRNRPPRLPRPRPRPGREPRP stands 0.588; under RRIRGRPPRLPRPRPRPLVFPRP, 0.455; under RRIRMRPPRLPRPRPRPYMHPRP, -0.0641.
RRIRNRPPRLPRPRPRPRWEPRP: the “shrunken log2 fold change” value was 0.291.
With RRIRSRPPRLPRPRPRPWVLPRP the figure was 2.29; with RRIRTRPPRLPRPRPRPPQLPRP, 0.0198.
In the case of RRIRLRPPRLPRPRPRPMNQPRP, the “shrunken log2 fold change” value is -0.302.
Under RRIRCRPPRLPRPRPRPNLMPRP stands -0.323; under RRIRARPPRLPRPRPRPHPKPRP, 0.508; under RRIRQRPPRLPRPRPRPGKIPRP, -0.0789.
For RRIRCRPPRLPRPRPRPAWYPRP, the “shrunken log2 fold change” value was -0.0055.
On to RRIRHRPPRLPRPRPRPDAFPRP, for which the “shrunken log2 fold change” value was -0.0702.
Under RRIRRRPPRLPRPRPRPFQHPRP stands -0.248; under RRIRNRPPRLPRPRPRPCLHPRP, -0.888; under RRIRFRPPRLPRPRPRPMDFPRP, -0.00674.
As to RRIRIRPPRLPRPRPRPCSCPRP, the “shrunken log2 fold change” value is -0.446.
Consider RRIRFRPPRLPRPRPRPHWFPRP, for which the “shrunken log2 fold change” value was -0.0545.
On to RRIRVRPPRLPRPRPRPKKVPRP, for which the “shrunken log2 fold change” value was -0.11.
As to RRIRERPPRLPRPRPRPTFKPRP, the “shrunken log2 fold change” value was -0.313.
Under RRIRARPPRLPRPRPRPLIGPRP stands 0.107; under RRIRFRPPRLPRPRPRPKQWPRP, 0.133; under RRIRRRPPRLPRPRPRPTYCPRP, -0.0567.
As for RRIRKRPPRLPRPRPRPYFSPRP, the “shrunken log2 fold change” value is -0.178.
Under RRIRMRPPRLPRPRPRPFTRPRP stands -0.0636; under RRIRHRPPRLPRPRPRPDSLPRP, -0.0392.
